Results taken from patent US10729634B2, “Sex hormone-binding globulin for use as a medicament” (FUNDACIÓ HOSPITAL UNIVERSITARI VALL D'HEBRON—INSTITUT DE …, priority 2013, dated 2020).

Legend:
HepG2 cells = test: SHBG over-expression (pCMV-SHBG) in stably transfected HepG2 cells; format: cell-based, human; conditions: SHBG over-expressed (pCMV-SHBG) vs pCMV control
Excerpt: In order to elucidate a possible mechanism of action of the SHBG, HepG2 cells (catalog no. HB-8065; ATCC) maintained in DMEM supplemented with 10% FBS and antibiotics) were stably transfected with a vector expressing SHBG (pCMV-SHBG). The vector pCMV-SHBG and the control (pCMV-empty) were the ones used and mentioned in several publications, being the first in Bocchinfuso W P et al. “Expression and differential glycosylation of human sex hormone-binding globulin by mammalian cell lines”, Mol Endocrinol-1991, Vol. No. 5(11)., pp. 1723-1729.
From all panels in FIG. 20 it can be deduced that SHBG regulates hepatocyte lipid content by modulating ACC levels in HepG2 cells. (a) SHBG mRNA levels were determined in relation to 18S RNA in pCMV and pCMV-SHBG stably transfected HepG2 cells (FIG. 20 a). SHBG protein accumulation in the medium was measured using an ELISA in pCMV and pCMV-SHBG stably transfected HepG2 cells (FIG. 20 b). ACC mRNA levels were determined in relation to 18S mRNA in pCMV and pCMV-SHBG stably transfected HepG2 cells (FIG. 20 c). SHBG mRNA levels were determined in relation to 18S RNA in shControl and shSHBG stably transfected HepG2 cells (FIG. 20 d). SHBG protein accumulation in the medium was measured using an ELISA in shControl and shSHBG stably transfected HepG2 cells (FIG. 20 e). […]

[1] = tested on: human SHBG transgenic mice (shbg); test: High fructose diet in human SHBG transgenic mice vs wild-type; format: in vivo; conditions: high fructose diet (76% fructose) for 8 weeks, shbg vs WT mice
Excerpt: For this experiment there were used C57BL/6 mice (WT, controls) and human SHBG transgenic mice (shbg) but not obese.
SHBG transgenic mice were obtained as disclosed above and according to Jänne et al, “Human Sex-Hormone-Binding Globulin Gen Expression in Transgenic Mice”, Molecular Endocrinology—1998, Vol. No. 12 (1), pp: 123-136 (supra).
Wild-type (WT) mice and shbg mice were fed with a high fructose diet. (76% fructose) for 8 weeks. Afterwards, they were sacrificed and liver biopsies were analyzed to see total triglyceride (TG) accumulation in both animal types.
Total triglyceride detection was measured using a triglyceride assay kit (Cat. #K622-100 BioVision) following the manufacturer's instructions.
As in Example 3.4 and following the same protocol, lipogenesis was studied by determining the mRNA and protein levels of acetyl-CoA carboxylase (ACC) and fatty acid synthase (FAS). Data from this analysis are illustrated in FIG. 18, panels (C) and (D).

[2] = tested on: human SHBG transgenic mice (shbg); test: High lipid diet in human SHBG transgenic mice vs wild-type; format: in vivo; conditions: shbg vs WT mice
Method: Wild-type (WT) mice and shbg-mice as in Example 5 were fed with a high lipid diet (50% lipids, from which 46% pig butter and 4% soybean fat) for 8 weeks.
Weight increase along weeks was followed and plotted in FIG. 19 (A), wherein the weight in grams of mice is plotted per week after consumption of the fat diet.
Once mice were sacrificed, visceral adipose tissue (VAT in grams) was analyzed in both animal types. […] VAT was determined as follows: all visceral fat was removed from the animals and it was weighed in a precision balance.

[3] = tested on: human mature adipocytes from obese subjects; test: Lipolysis assay (glycerol release) in human mature adipocytes; format: cell-based; conditions: SHBG 10 nM and 30 nM, 16h incubation, vs control buffer
Method: A similar in vitro experiment as in Example 1 was performed but using human mature adipocytes from obese subjects instead of the HepG2 cells.
The cells were maintained in DMEM supplemented with 10% foetal bovine serum (FBS) and antibiotics, cultured to confluence, washed and incubated with Lipolysis Assay Buffer containing vehicle (control—C), Isoproterenol (positive control—ISO, 3 μM) or SHBG at different final cell culture concentrations (10 nM and 30 nM). SHBG was from native human protein purified from healthy human serums (it included the amino acid sequence SEQ ID NO: 1). After 16h incubation, media was collected and glycerol concentration was assessed using a Glycerol Detection Kit (Zenbio).

[4] = tested on: HepG2 hepatoblastoma cells; test: Lipolysis assay (glycerol release) in HepG2 cells; format: cell-based, human; conditions: SHBG 2.5 nM, 10 nM and 50 nM, 16h incubation, vs vehicle control
Method: Cell culture experiments. Cell culture reagents were from Life Technologies Inc (Invitrogen SA). HepG2 hepatoblastoma cells (catalog no. HB-8065; ATCC) were maintained in DMEM supplemented with 10% foetal bovine serum (FBS) and antibiotics. For experiments, HepG2 cells were cultured to 60%-80% confluence, cells were washed and incubated with Lipolysis Assay Buffer containing vehicle (control—C), Isoproterenol (positive control—ISO, 3 μM) or SHBG at different final cell culture concentrations (2.5 nM, 10 nM and 50 nM). SHBG was from native human protein purified from healthy human serums (it included the amino acid sequence SEQ ID NO: 1). After 16h incubation, media was collected and glycerol concentration was assessed using a Glycerol Detection Kit (Zenbio).
The data are depicted in FIG. 1, wherein the bars indicate the levels of glycerol (Gly) for each assayed sample. Glycerol is a direct measure of the lipolysis level, since is the product obtained when triglycerides are decomposed chemically or enzymatically to glycerol and fatty acids.

B1: SHBG: native human protein purified from healthy human serums (included SEQ ID NO: 1); in mice and HepG2 expressed from human shbg transgene/vector (protein, listed as Homo sapiens)
chain: MESRGPLATSRLLLLLLLLLLRHTRQGWALRPVLPTQSAHDPPAVHLSNGPGQEPIAVMTFDLTKITKTSSSFEVRTWDPEGVIFYGDTNPKDDWFMLGLRDGRPEIQLHNHWAQLTVGAGPRLDDGRWHQVEVKMEGDSVLLEVDGEEVLRLRQVSGPLTSKRHPIMRIALGGLLFPASNLRLPLVPALDGCLRRDSWLDKQAEISASAPTSLRSCDVESNPGIFLPPGTQAEFNLRDIPQPHAEPWAFSLDLGLKQAAGSGHLLALGTPENPSWLSLHLQDQKVVLSSGSGPGLDLPLVLGLPLQLKLSMSRVVLSQGSKMKALALPPLGLAPLLNLWAKPQGRLFLGALPGEDSSTSFCLNGLWAQGQRLDVDQALNRSHEIWTHSCPQSPGNGTDASH
- ACC expression (HepG2 cells): the expression of ACC is reduced
- total TG content (HepG2 cells): the total TG is reduced
- fatty liver disease [1]: Protects Against Fatty Liver Disease
- triglyceride amount in liver [1]: higher in WT mice than in the transgenic ones (shbg)
- visceral adipose tissue (VAT) ([2]; high lipid diet (50% lipids) for 8 weeks): wild-type mice had a greater visceral adipose tissue than transgenic animals
- body weight along weeks ([2]; high lipid diet (50% lipids)): always a lower weight than wild-type mice
- obesity ([2]; high lipid diet (50% lipids)): Protects Against Obesity
- final glycerol concentration (lipolysis) [3]: greater than the observed in the non-treated mature adipocytes
- lipolysis (glycerol concentration in medium) [4]: increased the lipolysis in HepG2 cells (in a dose-dependent manner)
